Biological target: T1, PEG10 gag
T1 chain: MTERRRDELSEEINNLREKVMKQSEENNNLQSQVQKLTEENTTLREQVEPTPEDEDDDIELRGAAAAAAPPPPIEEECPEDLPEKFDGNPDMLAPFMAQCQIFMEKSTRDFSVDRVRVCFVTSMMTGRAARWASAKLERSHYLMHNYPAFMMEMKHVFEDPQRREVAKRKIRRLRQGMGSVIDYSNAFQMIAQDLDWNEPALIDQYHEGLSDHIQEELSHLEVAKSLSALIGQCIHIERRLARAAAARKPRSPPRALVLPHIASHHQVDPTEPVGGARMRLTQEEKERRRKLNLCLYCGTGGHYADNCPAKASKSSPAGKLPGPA

B1: PEG10 gag-pol (protein)
chain: MTERRRDELSEEINNLREKVMKQSEENNNLQSQVQKLTEENTTLREQVEPTPEDEDDDIELRGAAAAAAPPPPIEEECPEDLPEKFDGNPDMLAPFMAQCQIFMEKSTRDFSVDRVRVCFVTSMMTGRAARWASAKLERSHYLMHNYPAFMMEMKHVFEDPQRREVAKRKIRRLRQGMGSVIDYSNAFQMIAQDLDWNEPALIDQYHEGLSDHIQEELSHLEVAKSLSALIGQCIHIERRLARAAAARKPRSPPRALVLPHIASHHQVDPTEPVGGARMRLTQEEKERRRKLNLCLYCGTGGHYADNCPAKASKSSPAGKLPGPAVEGPSATGPEIIRSPQDDASSPHLQVMLQIHLPGRHTLFVRAMIDSGASGNFIDHEYVAQNGIPLRIKDWPILVEAIDGRPIASGPVVHETHDLIVDLGDHREVLSFDVTQSPFFPVVLGVRWLSTHDPNITWSTRSIVFDSEYCRYHCRMYSPIPPSLPPPAPQPPLYYPVDGYRVYQPVRYYYVQNVYTPVDEHVYPDHRLVDPHIEMIPGAHSIPSGHVYSLSEPEMAALRDFVARNVKDGLITPTIAPNGAQVLQVKRGWKLQVSYDCRAPNNFTIQNQYPRLSIPNLEDQAHLATYTEFVPQIPGYQTYPTYAAYPTYPVGFAWYPVGRDGQGRSLYVPVMITWNPHWYRQPPVPQYPPPQPPPPPPPPPPPPSYSTL
  presence of HA-tagged cleavage products by western blot after co-transfection: PEG10 gag-pol was capable of cleaving PEG10 gag in trans

Reference: patent publication US20230167501
